This data set is described as follows: label from the status in PepcDB records.
Take “MDDNTPDLFAEPAAPEGDFLTLGRYAERQYLDYAVSVVKGRALPDVSDGQKPVQRRILYAMNEMGLGDNAKPVKSARVVGDVLGKYHPHGDQSAYDALVRLAQDFSMRYPLIDGQGNFGSRDGDGAAAMRYTEARLTPIAKLLLDEIDEGTVDFMPNYDGSFDEPKLLPARLPFVLLNGASGIAVGLATEIPSHNLREVAAAAVALIRHPALPHAELMQLVPGPDFPGGGQIISSDAEISAAYETGRGSLKVRARWKIEDLARGQWQLVVTELPPNTSCQKVLEEIEELTNPKLKAGKKTLTQEQINTKKTMLDLLDAVRDESGKDAPVRLVFEPKTRTIDQTEFVNSLLAHTSLESNAALNLVMIGEDGRPAQKGLASILGEWVRFRQATVTRRCRHRLGKVNDRIHILEGRMIVFLNIDEVIRIIREADEPKAALISAFGLTERQADDILEIRLRQLARLEKIKIEKELEELRAEKAKLEELLANESAMKRLMIKEIEADAKQYGDERRTLIQQEKRATFEAKVVDEPVTVVVSQKGWVRALKGHGLDPASFSFKAGDGLYAAFQCRTPDTLIAWGSTGRVYSVAVQVLPGGRGDGVPVTSLIELESGSHLLHYFAAPAEQPLLLASSNGFGFIAKIGDMVSRVKAGKSFMTIDTGAAPLAPMPVLPDASQVACLSSGGRLLVFGMDEMKTLSGGGRGVILMALDAKETLVQALAIDAAGVVLTGTGRGGKAQEEALAGGALEPHVGKRARKGRAPDTRLKVSGLRPVLG”: the protein production result was “failed”.

For the sequence “MDKESVDTLFGMGLTAYQAKDYTKAIHALEHLREHDPSYTTLYSYLAKSYEENGEPEKAIAVLRDGLTQDEFNKEMFLEAGKLAVTLRLPEEAEEFYRQAIVLDEEFSEAIMQLNKLLLAKENYEGVIELVEGLGEEVISEPQIFWDVSVAYQETEQYNKAKANYELAYPHFTNNPTFLKEYGLFLREEGEHAKSQEVLRSYLELEPLEHHHHHH”, the protein production entry is reported as “not failed”.

Regarding “MGLFTDGFKLLKKASEPLYKTPKSIQETIEIMAVAENGIFEVSKNKYSKCYRFQDINYTTATEDEQIGIFERYCKFLNSLDCNYKITINNKNKNMDELRDKVLIAEKNDGFNNYRRIYNDIIEEKIIEGRQGIEQERYLTITIERKNFEEAKAQFATLEATIHKAFIELGAEIVPLNGNERLKVLYDYYHLGDEGSFDFDIKKAKKVGADFRNDLCNGMVKYFPDHFEDESKFCKALFIKKYPSSLSDRFINEITSLPVHSITSIDVVPVPKDLTTKVLQKKYLGIESDIIKQQRVRNKNNDFSTEISYAKRTEKKEIEEIMDDVRENDQCLFFVGVTIILMAESKKELESVCETVETIGKRNSCTIDTHYLKQREALNTALPIGVRQVETMRTLLTQSLAVLMPFNVQELNDSTGNYYGINQISKNVNIGNRKKLINGNGFVFGVPGSGKSFFCKMEMGSVFLSGDDEIIVIDPMNEYFDIAETYGGTVVNMSTYTDNYVNPLEMDVWSLDPNDSKGMVREKGEFMLGLCEQCIGDSLNSRQKSIIDRCVRKLYIDIARSKEKYIPVMSDFYDILMAQPEDEAKDIALSLELFVNGSLNIFNHQTNVDVDNRFTVYGIRDLGTELSPITMLVMMESIQNRIVENGKRGKATWLYIDEFHVLLNSEYSAKYLQQLWKKVRKQGGLCTGITQNVVDLLQNYTATTMLANSEFVALLKQANTDSSKMAEVIGVSEAQLRFVTNTASGMGLIKCGSVVIPFDNQISKDTDLYKLYNTNIHEIIEMKKHANEKNVNSL”, the protein production result is “failed”.

As to “MYFVDRSKIEKTLGFFEHQLALFDSQTDWQSEIGELALQRIGHLLIECILDTGNDMIDGFIMRDPGSYDDIMDILVDEKVVTEKEGDELKKLIAYRKTLVQQYLLADSGELYRLIKAHQTALQDFPKRIRSYLETELGPVSAFK”, the protein production result is on record as “not failed”.

As for “MNQYVKIEVQQGDTLWSIADQVADTKKINKNDFIEWVADKNQLQTSDIQPGDELVIPLKKKHQDAYELATLEHHHHHH”, the protein production result is “failed”.

For “MKILYPTDFSEVSQKALTECVPSIILGIGEGSELILLHVVDITASEIGALELAEVDKEELNNLASQLREKGIKVKPIVRIGIPSLEISEVAKEENVDLIIIPSKGENILRQMLLGSTASNLARITHKPVLLLRYEVENGEIKSLQDCSRIFEKPLVALDLSKCSEKIIETIKDLPGVREAVLFHVVDYGKVEELENNIKNAKEKLSKYGKLLPWKTKIEVQAGIASKGIIGAAIDNNVTLVVIGKKGRSVLKDLLLGSTAERVIRDCKLPTLLIPCE”, the protein production entry is given as “failed”.

The record behind these values is a protein production outcome set (Wang et al. 2014).
